Target: Ssl1 (S. sviceus laccase 1), small two-domain laccase from Streptomyces sviceus, without the twin-arginine signal peptide (Streptomyces sviceus)
Test: SEC-MALS; Superdex 200 10/300 GL, 0.5 mL/min, 50 mM potassium phosphate pH 7.5; 100 µL of Ssl1 at 7.5 mg/mL injected; multi-angle static light scattering with refractometer

stoichiometry N: 3
Substance: Ssl1 (S. sviceus laccase 1), small two-domain laccase from Streptomyces sviceus, without the twin-arginine signal peptide (enzyme)
